# Assay results from patent publication EP1214598B1.
# No end group written: not given here.
# B1: PHF43 (tau fragment generated by GluC digestion of K19, 43 residues) (peptide)
# peptide: NLKHQPGGGKVQIVYKPVDLSKVTSKCGSLGNIHHKPGGGQVE
# modifications: also: dimer via Cys322-Cys322 disulfide (without DTT)
# Target: PHF43 (tau fragment generated by GluC digestion of K19, 43 residues) (human)
# Assay: disulfide dimerization via Cys322, after reverse phase HPLC
binder,measurement,value
B1,dimer fraction,100%
